What all share (assay type): biochemical, Sinorhizobium meliloti
Common to all, as to details: free enzyme; kinetic pH and metal not given

Substrate in series [1]: NC(=O)N[C@@H](Cc1ccc(O)c(I)c1)C(=O)O
Description: saturation kinetics, Michaelis-Menten fit. The text has this: (§1) saturation kinetics, Michaelis-Menten fit on […]

Substrate in series [2]: NC(=O)N[C@@H](Cc1ccc(O)c([N+](=O)[O-])c1)C(=O)O
Put plainly: HPLC saturation kinetics, Michaelis-Menten fit. The text has this:
HPLC saturation kinetics, Michaelis-Menten fit on […]

Substrate in series [3]: NC(=O)N[C@@H](Cc1ccc(O)c([N+](=O)[O-])c1)C(=O)O
Description: saturation kinetics, Michaelis-Menten fit.
Text: as §1

Changes are numbered by the printed parent chain. Numbers in names are those of the source.

As a reminder, the kcat is the maximal rate divided by the concentration of active sites. For orientation: kcat/Km means the turnover number divided by the Michaelis constant.

B1: SmLcar (Sinorhizobium meliloti) (protein)
chain: MAAPGENRRVNADRLWDSLMEMAKIGPGVAGGNNRQTLTDADGEGRRLFQSWCEEAGLSMGVDKMGTMFLTRPGTDPDALPVHIGSHLDTQPTGGKFDGVLGVLSGLEAVRTMNDLGIKTKHPIVVTNWTNEEGARFAPAMLASGVFAGVHTLEYAYARKDPEGKSFGDELKRIGWLGDEEVGARKMHAYFEYHIEQGPILEAENKQIGVVTHCQGLWWLEFTLTGREAHTGSTPMDMRVNAGLAMARILEMVQTVAMENQPGAVGGVGQMFFSPNSRNVLPGKVVFTVDIRSPDQAKLDGMRARIEAEAPKICERLGVGCSIEAVGHFDPVTFDPKLVETVRGAAEKLGYSHMNLVSGAGHDACWAAKVAPTTMIMCPCVGGLSHNEAEDISREWAAAGADVLFHAVLETAEIVE
notes: recombinant, produced from plasmid and purified; bivalent metal-dependent
Consider B1, for which, in series [1], the Km is given as 13.8 (7.91) mM, the kcat stood at 6.92e-05 ± 2.09e-05 s⁻¹ and the kcat/Km worked out at 0.005 ± 0.00315 M⁻¹ s⁻¹. Moreover, in series [2], the Km is given as 2.98 (0.87) mM, the kcat is 0.000105 ± 1.01e-05 s⁻¹ and the kcat/Km turned out to be 0.0354 ± 0.00977 M⁻¹ s⁻¹.

B2: SmLcar (Sinorhizobium meliloti; F329Y/L217G) (protein)
chain: B1 chain with L217G, F329Y
notes: as for B1
In the case of B2, in series [1], the Km is 1.45 (0.16) mM, the kcat was determined as 0.231 s⁻¹ and the kcat/Km was 159 M⁻¹ s⁻¹. In series [3], the Km is 5.30 (0.88) mM, the kcat worked out at 0.78 s⁻¹ and the kcat/Km stood at 148 M⁻¹ s⁻¹.

B3: SmLcar (Sinorhizobium meliloti; F329C/L217G) (protein)
chain: B1 chain with L217G, F329C
notes: as for B1
On to B3, for which, in series [1], the Km is listed as 5.71 (1.14) mM, the kcat was 4.84 s⁻¹ and the kcat/Km was 849 M⁻¹ s⁻¹. For the same protein, in series [3], the Km is on record as 2.92 (0.95) mM, the kcat amounted to 0.32 s⁻¹ and the kcat/Km amounted to 108 M⁻¹ s⁻¹.

B4: SmLcar (Sinorhizobium meliloti; L217G) (protein)
chain: B1 chain with L217G
notes: as for B1
Take B4: in series [1], the Km is listed as 2.58 (0.46) mM, the kcat amounted to 0.232 s⁻¹ and the kcat/Km is 89.9 M⁻¹ s⁻¹. Further, in series [3], the Km is 8.91 (2.81) mM, the kcat was determined as 0.0929 ± 0.0136 s⁻¹ and the kcat/Km was 10.4 M⁻¹ s⁻¹.

Values taken from PMC10107544, “Selecting Better Biocatalysts by Complementing Recoded Bacteria” (Angewandte Chemie (International Ed. in English), 2022).
